{"source": "paper PMC5832332", "about": "(Nature, 2017)", "proteins": {"B1": {"name": "Enterococcus faecalis Cas2 (natural protein, UniProt A0A3N3FLR9 1-109, looked up)", "chain": "MSYRYMRLLLMFDMPTDTASDRKAYRKFRKFLINEGFIMHQFSVYSKILLNDTANKAMLARLKQNNPQRGLITLLNVTEKQFSRMIYLHGEQDNRVANSDERIVFLGEE"}}, "target": "the molecule itself", "assay": "crystal structure"}
{"protein": "B1", "values": [{"measurement": "stoichiometry N", "result": 2}]}
